From the supplement of paper PMC11246515
± gives the standard deviation of the averaged measurements.

Assay: total protein half-life in vivo (active degradation + dilution); higher = more stable protein
[1] = E. coli NCM3722 delta-clpP delta-lon delta-hslV, growth: N-lim chemostat, doubling time 6 h
[2] = E. coli NCM3722 delta-clpP, growth: N-lim chemostat, doubling time 6 h
[3] = E. coli NCM3722 delta-lon, growth: N-lim chemostat, doubling time 6 h
[4] = E. coli NCM3722 delta-smpB, growth: N-lim chemostat, doubling time 6 h
[5] = wild type E. coli NCM3722, growth: C-lim chemostat, doubling time 3 h
[6] = wild type E. coli NCM3722, growth: C-lim chemostat, doubling time 6 h
[7] = wild type E. coli NCM3722, growth: C-lim chemostat, doubling time 12 h
[8] = wild type E. coli NCM3722, growth: N-lim chemostat, doubling time 6 h
[9] = wild type E. coli NCM3722, growth: N-lim chemostat, doubling time 12 h
[10] = wild type E. coli NCM3722, growth: P-lim chemostat, doubling time 6 h
[11] = wild type E. coli NCM3722, growth: P-lim chemostat, doubling time 12 h
[12] = E. coli NCM3722 delta-hslV, growth: N-lim chemostat, doubling time 6 h

Sequence	total protein half-life in vivo [1]	total protein half-life in vivo [2]	total protein half-life in vivo [3]	total protein half-life in vivo [4]	total protein half-life in vivo [5]	total protein half-life in vivo [6]	total protein half-life in vivo [7]	total protein half-life in vivo [8]	total protein half-life in vivo [9]	total protein half-life in vivo [10]	total protein half-life in vivo [11]	total protein half-life in vivo [12]
MIEFSHVSKLFGAQKAVNDLNLNFQEGSFSVLIGTSGSGKSTTLKMINRLVEHDSGEIRFAGEEIRSLPVLELRRRMGYAIQSIGLFPHWSVAQNIATVPQLQKWSRARIDDRIDELMALLGLESNLRERYPHQLSGGQQQRVGVARALAADPQVLLMDEPFGALDPVTRGALQQEMTRIHRLLGRTIVLVTHDIDEALRLAEHLVLMDHGEVVQQGNPLTMLTRPANDFVRQFFGRSELGVRLLSLRSVADYVRREERADGEALAEEMTLRDALSLFVARGCEVLPVVNMQGQPCGTLHFQDLLVEA	5.87 ± 0.78 h	5.31 ± 0.036 h	4.82 h	4.51 ± 0.06 h	2.77 ± 0.11 h	4.96 ± 0.22 h	8.02 ± 0.57 h	5.05 ± 0.085 h	7.777 ± 0.046 h	4.85 ± 0.33 h	8.835 ± 0.04 h	
MRTISYSEARQNLSATMMKAVEDHAPILITRQNGEACVLMSLEEYNSLEETAYLLRSPANARRLMDSIDSLKSGKGTEKDIIE	2.74 h	2 ± 0.78 h		3.15 h	> 4 h	1.57 ± 0.23 h	2.2 ± 1.2 h	1.8 h	2.86 ± 0.17 h	1.67 h	3.61 ± 0.31 h	2.66 ± 0.31 h
MLDQVCQLARNAGDAIMQVYDGTKPMDVVSKADNSPVTAADIAAHTVIMDGLRTLTPDVPVLSEEDPPGWEVRQHWQRYWLVDPLDGTKEFIKRNGEFTVNIALIDHGKPILGVVYAPVMNVMYSAAEGKAWKEECGVRKQIQVRDARPPLVVISRSHADAELKEYLQQLGEHQTTSIGSSLKFCLVAEGQAQLYPRFGPTNIWDTAAGHAVAAAAGAHVHDWQGKPLDYTPRESFLNPGFRVSIY	4.77 ± 0.078 h	4.77 ± 0.62 h	5.51 ± 1.2 h	4.29 ± 0.011 h	2.97 ± 0.26 h	5.69 ± 0.6 h	10.58 ± 0.1 h	4.76 ± 0.5 h	7.931 ± 0.051 h	6.3 ± 0.95 h	10.7 ± 0.4 h	4.6 ± 0.36 h
MQEGQNRKTSSLSILAIAGVEPYQEKPGEEYMNEAQLAHFRRILEAWRNQLRDEVDRTVTHMQDEAANFPDPVDRAAQEEEFSLELRNRDRERKLIKKIEKTLKKVEDEDFGYCESCGVEIGIRRLEARPTADLCIDCKTLAEIREKQMAG [P0ABS1]	6.12 ± 0.34 h	6.26 ± 1.2 h	3.95 ± 0.44 h	3.12 ± 0.035 h	1.68 ± 0.14 h	3.27 ± 0.28 h	5.07 ± 0.47 h	3.65 ± 0.58 h	7.03 ± 0.073 h	3.71 ± 0.66 h	9.06 ± 0.61 h	3.53 ± 0.55 h
MEQRHITGKSHWYHETQSSTTEYDVLPLVPEAAKVSDPFLLDVILEKETLAPFLSWLDPARVLAVDLFPDQLTVTRSQTFTAYERLSTALTVAQVCGVQRLCNYYSARLTPLPGPDSTRESNHRLAQITQYARQLASSPSIIDNRSRQHLNDVGLTAWDCVIISQIIGFIGFQARTIATFQAYLGHPVRWLPGLEIQNYADASLFADESLRWRSSYEVEKLPEEHTKSSTAELCQLAEILSLHPISLSLLEKLLNSTRGNTQPDNQLAALLCARINGSPACFATCMDSSNEYKKISTLMRKGENEINQWADRHSVERATVQAIQWLTRAPDRFSAAQFSPLLEHEKSSTQIINLLVWSGLCGWINRLKIALGETY	6.43 ± 1.4 h	1.97 ± 0.21 h	1.26 h	1.07 ± 0.024 h	1.25 ± 0.085 h	1.21 ± 0.12 h	1.93 ± 0.13 h	1.31 ± 0.044 h	6.39 ± 6 h	1.32 ± 0.4 h	2.65 ± 0.49 h	1.97 ± 0.55 h
MSTTNHDHHIYVLMGVSGSGKSAVASEVAHQLHAAFLDGDFLHPRRNIEKMASGEPLNDDDRKPWLQALNDAAFAMQRTNKVSLIVCSALKKHYRDLLREGNPNLSFIYLKGDFDVIESRLKARKGHFFKTQMLVTQFETLQEPGADETDVLVVDIDQPLEGVVASTIEVIKKGK	5.07 ± 0.67 h	4.474 ± 0.042 h		4.121 ± 0.011 h	3.02 ± 0.08 h	> 8 h	8.67 h	3.92 ± 0.44 h	6.38 ± 0.14 h	4.1 h	9.14 ± 0.42 h	4.01 h
MKKLVLSLSLVLAFSSATAAFAAIPQNIRIGTDPTYAPFESKNSQGELVGFDIDLAKELCKRINTQCTFVENPLDALIPSLKAKKIDAIMSSLSITEKRQQEIAFTDKLYAADSRLVVAKNSDIQPTVESLKGKRVGVLQGTTQETFGNEHWAPKGIEIVSYQGQDNIYSDLTAGRIDAAFQDEVAASEGFLKQPVGKDYKFGGPSVKDEKLFGVGTGMGLRKEDNELREALNKAFAEMRADGTYEKLAKKYFDFDVYGG [P0AEU0]		5.99 ± 0.12 h	6.35 ± 0.24 h	5.88 ± 0.91 h	3.08 ± 0.17 h	6.45 ± 1 h	13.1 ± 0.17 h	5.8 ± 0.59 h	13.9 ± 0.36 h	6.2 ± 0.54 h	14.3 ± 0.77 h	6.1 ± 0.068 h
MSTQEATLQQPLLQAIDLKKHYPVKKGMFAPERLVKALDGVSFNLERGKTLAVVGESGCGKSTLGRLLTMIEMPTGGELYYQGQDLLKHDPQAQKLRRQKIQIVFQNPYGSLNPRKKVGQILEEPLLINTSLSKEQRREKALSMMAKVGLKTEHYDRYPHMFSGGQRQRIAIARGLMLDPDVVIADEPVSALDVSVRAQVLNLMMDLQQELGLSYVFISHDLSVVEHIADEVMVMYLGRCVEKGTKDQIFNNPRHPYTQALLSATPRLNPDDRRERIKLSGELPSPLNPPPGCAFNARCRRRFGPCTQLQPQLKDYGGQLVACFAVDQDENPQR	6.25 ± 0.25 h	5.92 ± 0.29 h	6.11 ± 0.94 h	5.605 ± 0.031 h	2.88 ± 0.33 h	6.28 ± 0.43 h	11.6 ± 0.25 h	6.08 ± 0.62 h	13.1 ± 0.71 h	6.16 ± 0.27 h	13.1 ± 0.21 h	6.41 ± 0.085 h
MDFSLTEEQELLLASIRELITTNFPEEYFRTCDQNGTYPREFMRALADNGISMLGVPEEFGGIPADYVTQMLALMEVSKCGAPAFLITNGQCIHSMRRFGSAEQLRKTAESTLETGDPAYALALTEPGAGSDNNSATTTYTRKNGKVYINGQKTFITGAKEYPYMLVLARDPQPKDPKKAFTLWWVDSSKPGIKINPLHKIGWHMLSTCEVYLDNVEVEESDMVGEEGMGFLNVMYNFEMERLINAARSTGFAECAFEDAARYANQRIAFGKPIGHNQMIQEKLALMAIKIDNMRNMVLKVAWQADQHQSLRTSAALAKLYCARTAMEVIDDAIQIMGGLGYTDEARVSRFWRDVRCERIGGGTDEIMIYVAGRQILKDYQNK [P0A9U8]	6.36 ± 0.59 h			1.03 h	2.23 h	> 8 h	2.25 h		2.165 ± 0.02 h	0.772 h	2.42 h	1.41 h
MQVKTQSCVVAGKKTVAVTEQTIDWNNNGTLVQITRGGICGSDLHYYQEGKVGNFMIKAPMVLGHEVIGKVIHSDSSELHEGQTVAINPSKPCGHCKYCIEHNENQCTDMRFFGSAMYFPHVDGGFTRYKMVETSQCVPYPAKADEKVMAFAEPLAVAIHAAHQAGELQGKRVFISGVGPIGCLIVSAVKTLGAAEIVCADVSPRSLSLGKEMGADVLVNPQNDDMDHWKAEKGYFDVSFEVSGHPSSVNTCLEVTRARGVMVQVGMGGAMAEFPMMTLIGKEISLRGSFRFTSEFNTAVSWLANGVINPLPLLSAEYPFTDLEEALRFAGDKTQAAKVQLVF					1.348 ± 0.0073 h	2.71 h	5.81 h					
MSEKLQKVLARAGHGSRREIESIIEAGRVSVDGKIAKLGDRVEVTPGLKIRIDGHLISVRESAEQICRVLAYYKPEGELCTRNDPEGRPTVFDRLPKLRGARWIAVGRLDVNTCGLLLFTTDGELANRLMHPSREVEREYAVRVFGQVDDAKLRDLSRGVQLEDGPAAFKTIKFSGGEGINQWYNVTLTEGRNREVRRLWEAVGVQVSRLIRVRYGDIPLPKGLPRGGWTELDLAQTNYLRELVELPPETSSKVAVEKDRRRMKANQIRRAVKRHSQVSGGRRSGGRNNNG	6.28 ± 0.59 h	5.65 ± 1.1 h	5.92 ± 0.38 h	4.94 ± 0.081 h	2.92 ± 0.27 h	5.79 ± 0.66 h	10.4 ± 2.1 h	6.18 ± 1.5 h	9.66 ± 0.21 h	5.43 ± 0.43 h	10.6 ± 0.17 h	6.02 ± 0.61 h
MDFPQQLEACVKQANQALSRFIAPLPFQNTPVVETMQYGALLGGKRLRPFLVYATGHMFGVSTNTLDAPAAAVECIHAYSLIHDDLPAMDDDDLRRGLPTCHVKFGEANAILAGDALQTLAFSILSDADMPEVSDRDRISMISELASASGIAGMCGGQALDLDAEGKHVPLDALERIHRHKTGALIRAAVRLGALSAGDKGRRALPVLDKYAESIGLAFQVQDDILDVVGDTATLGKRQGADQQLGKSTYPALLGLEQARKKARDLIDDARQSLKQLAEQSLDTSALEALADYIIQRNK	4.5 ± 0.14 h	5.14 ± 0.67 h	4.579 ± 0.024 h	4.63 ± 0.38 h	3.14 ± 0.08 h	5.849 ± 0.0072 h	11.5 ± 0.9 h	4.46 ± 0.66 h	6.952 ± 0.057 h	5.75 ± 0.13 h	11.2 ± 0.6 h	4.44 ± 0.056 h
MNKLQSYFIASVLYVMTPHAFAQGTVTIYLPGEQQTLSVGPVENVVQLVTQPQLRDRLWWPGALLTDSAAKAKALKDYQHVMAQLASWEAEADDDVAATIKSVRQQLLNLNITGRLPVKLDPDFVRVDENSNPPLVGDYTLYTVQRPVTITLLGAVSGAGQLPWQAGRSVTDYLQDHPRLAGADKNNVMVITPEGETVVAPVALWNKRHVEPPPGSQLWLGFSAHVLPEKYADLNDQIVSVLTQRVPD									7.71 h			
MTDQSHQCVIIGIAGASASGKSLIASTLYRELREQVGDEHIGVIPEDCYYKDQSHLSMEERVKTNYDHPSAMDHSLLLEHLQALKRGSAIDLPVYSYVEHTRMKETVTVEPKKVIILEGILLLTDARLRDELNFSIFVDTPLDICLMRRIKRDVNERGRSMDSVMAQYQKTVRPMFLQFIEPSKQYADIIVPRGGKNRIAIDILKAKISQFFE [P0A8F4]	5.42 ± 0.4 h	4.6 ± 0.34 h	4.87 ± 1.3 h	4.376 ± 0.027 h	2.86 ± 0.035 h	5.074 ± 0.037 h	9.37 ± 0.41 h	4.36 ± 0.07 h	6.72 ± 0.17 h	5.11 ± 0.44 h	9.61 ± 2.1 h	
MKFKVIALAALMGISGMAAQANELPDGPHIVTSGTASVDAVPDIATLAIEVNVAAKDAATAKKQADERVAQYISFLELNQIAKKDISSANLRTQPDYDYQDGKSILKGYRAVRTVEVTLRQLDKLNSLLDGALKAGLNEIRSVSLGVAQPDAYKDKARKAAIDNAIHQAQELANGFHRKLGPVYSVRYHVSNYQPSPMVRMMKADAAPVSAQETYEQAAIQFDDQVDVVFQLEPVDQQPAKTPAAQ [P0ADS6]	6.45 ± 0.46 h	6.67 ± 0.7 h	6.77 ± 1.2 h	5.98 ± 0.096 h	3.2 ± 0.14 h	5.88 ± 0.43 h	12.1 ± 1.4 h	5.83 ± 0.65 h	12.1 ± 1.2 h	5.59 ± 0.14 h	11.7 ± 0.76 h	
